Patent publication US20240336683A1 (published 2024)

T1: human Siglec15-Fc fusion protein (human, UniProt Q6ZMC9 20-263)
T1 construct: Bought protein (Acro #SG5-H5253 is named for the selection); also called recombinant Siglec 15-Fc fusion protein (Acro #SG5-H5253); human Siglec15-Fc protein; not shown: Fc part of the bought fusion protein
T1 sequence (looked up): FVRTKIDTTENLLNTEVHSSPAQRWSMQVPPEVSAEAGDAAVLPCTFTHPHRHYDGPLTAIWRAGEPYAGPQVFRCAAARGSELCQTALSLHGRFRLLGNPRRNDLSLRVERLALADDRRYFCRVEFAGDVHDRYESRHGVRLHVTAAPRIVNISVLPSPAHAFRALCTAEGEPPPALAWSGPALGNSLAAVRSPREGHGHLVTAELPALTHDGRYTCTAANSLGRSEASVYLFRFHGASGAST

T2: full-length human Siglec15 with C-terminal flag and Myc tags on HEK293 cells (human, UniProt Q6ZMC9 20-328)
T2 construct: whole, on cells; also called Siglec15/HEK293; HEK293-Siglec 15; not shown: C-terminal flag and Myc tags from pCMV6-Entry vector
T2 sequence (looked up): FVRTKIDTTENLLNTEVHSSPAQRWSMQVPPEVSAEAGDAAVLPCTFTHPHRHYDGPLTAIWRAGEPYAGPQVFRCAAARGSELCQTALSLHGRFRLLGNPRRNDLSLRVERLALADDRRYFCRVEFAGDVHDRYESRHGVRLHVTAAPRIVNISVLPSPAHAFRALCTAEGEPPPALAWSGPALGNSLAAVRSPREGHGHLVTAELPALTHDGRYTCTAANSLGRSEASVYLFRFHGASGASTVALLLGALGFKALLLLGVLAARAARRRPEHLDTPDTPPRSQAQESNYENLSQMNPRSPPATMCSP


Columns and labels:
[1] = target: T1, human Siglec15-Fc fusion protein; assay: SPR Biacore T200; Siglec15-Fc captured on Protein A chip, scFv as analyte
Procedure: Kinetic analysis of anti-Siglec15 scFvs were assessed by SPR technology with Biacore T200. The assay was run with Biacore T200 control software version 2.0. Protein A sensor chip was used to capture Fc fusion protein in the assay. For each cycle, 1 ug/mL of human Siglec15-Fc protein was captured for 60 seconds at flow rate of 10 ul/min on flow cell 2 in 1× HBSP buffer on Protein A sensor chip. 2-fold serial diluted HIS tag purified anti-Siglec15 scFv was injected onto both reference flow cell 1 and Siglec 15-Fc captured flow cell 2 for 150 seconds at flow rate of 30 ul/min followed by wash for 300 seconds. The flow cells were then regenerated with Glycine pH 2 buffer (GE) for 30 seconds at flow rate of 30 ul/mins. 8 concentration points from 300-0 nM was assayed per anti-Siglec15 scFv in a 96 well plate. The kinetics of scFvs binding to Siglec 15 protein was analyzed with Biacore T200 evaluation software version 3.0. The specific binding response unit was derived from subtraction of binding to reference flow cell 1 from Siglec15 captured flow cell 2.

[2] = target: T1, human Siglec15-Fc fusion protein; assay: ELISA; Siglec15-Fc captured by anti-hFc, scFv titrated, anti-Flag HRP
Procedure: An ELISA assay was developed to determine the EC50 of anti-Siglec15 antibodies. Briefly, a 384 well plate was immobilized with anti-human Fc antibody at final concentration of 2 ug/mL in 1×PBS in total volume of 25 uL per well. The plate was incubated overnight at 4° C. followed by blocking with 80 uL of superblock per well for 1 hour. Human Siglec 15-Fc was captured through immobilized anti-hFc antibody. Purified anti-Siglec 15 scFvs were 2-fold serial titrated from 200 nM. 25 uL was added to human Siglec15 immobilized wells and incubated for 1 hour with shaking. The Siglec15 binding was detected by adding 25 uL of anti-Flag HRP diluted at 1:5000 in 1×PBST. In between each step, the plate was washed 3 times with 1×PBST in a plate washer. The plate was then developed with 20 uL of TMB substrate for 5 mins and stopped by adding 20 uL of 2 N sulfuric acid. The plate was read at OD450 nm Biotek plate reader and then plotted in Prism 8.1 software.

[3] = target: T2, full-length human Siglec15 with …; assay: FACS on Siglec15/HEK293 cells, scFv, anti-His detection
Procedure: […] Cells were spun down at 1200 rpm for 5 minutes at 4° C. to remove primary antibodies. Cells were then washed once with 200 uL of full medium per well. Samples were detected with premixed anti-His Biotin Streptavidin Alexa fluor 647 by adding 100 uL of diluted secondary antibody and incubated at 4° C. for 30 minutes in the dark. Samples were spun down at 1200 rpm for 5 minutes at 4° C. and washed twice with 200 uL of 1×PBS per well. Samples were then reconstituted in 200 uL of 1×PBS and read on Attune NxT cytometer. Analysis was performed using Attune NxT software plotting the overlaying the histogram of anti-Siglec15 scFvs binding onto both negative and target cell lines.

Binder	Kd [1] [nM]	koff [1] [s⁻¹]	kon [1] [M⁻¹ s⁻¹]	EC50 [2] [nM]	EC50 [3] [nM]
2020EP083-H01 scFv (scFv, V domains shown, Tested as a single-chain scFv made in E. coli with a C-terminal flag and 6x His tag) VH: QLQLQESGPGLVKPAETLSLTCTVSGGSVSSGDNLWDWIRQPPGKGLEWIGSIRDSGNPAYNPSLRSRVTISADTSTDQFSLKLTSVTAADTAVYYCARHSDGGYGKIYGMDVWGQGTTVTVSS VL: DIQLTQSPSFLSASVGDRVTITCRASQAVSTYLVWYLQKPGQAPRLLIYAASTLQSGVPSRFSGSGSGTDFTLTISRLQPEDAGTYFCQQLNSNALVFGGGTKVDIK	10.4	0.00149	143000	2.54	0.23
2019EP47-A05 scFv (scFv, V domains shown, Tested as a single-chain scFv made in E. coli with a C-terminal flag and 6x His tag) VH: QMQLVQSGAEVKKPGSSVKVSCKASGGTFSSYAISWVRQAPGQGLEWMGRIIPILGIANYAQKFQGRVTITADKSTSTAYMELSSLRSEDTAVYYCAVNTYYYDSSGYYYEYFDYWGQGTLVTVSS VL: EIVLTQSPSSLSASVGDRVTITCQASQHINNHLNWYQQKPGKGPKLLIYDVSNLEAGVPSRFSASGSGTDFSFTISSLQPEDFATYYCQQYDSLPLTFGQGTKVEVK	2.79	7.77e-05	27900	3.35	88.3
2020EP032-A12 scFv (scFv, V domains shown, Tested as a single-chain scFv made in E. coli with a C-terminal flag and 6x His tag) VH: QMQLVQSGGGVVQPGRSLRLSCAASGFTFSSYGMHWVRQAPGKGLEWVAVISDDGSNKYYADSVKGRFTISRDNSKNTLYLQMNSLRAEDTAVYYCAKKDVATILFDNWGQGTLVTVSS VL: VIWMTQSPSTLSASVGDRVTITCRASQSITRWLAWYQQKPGKAPKLLIYKTSDLDGGVPSRFSGSESGAEFTLTISSLQPDDVATYFCQHYNTRSWTFGQGTKVELK	2.26	0.000294	130000	0.544	0.86
2020EP032-A08 scFv (scFv, V domains shown, Tested as a single-chain scFv made in E. coli with a C-terminal flag and 6x His tag) VH: QVQLQQWGAGLLKPSETLSLTCAVYGGSFSGYYWSWIRQPPGKGLEWIGEINHSGSTNYNPSLKSRVTISVDTSKNQFSLKLSSVTAADTAVYYCARGVYYYDSSGPRDYFDYWGQGTLVTVSS VL: DIVMTQSPSSLSASVGDRVTITCQASQDISNYLNWYQQKPGKAPKLLIYDASNLKTGVPSRFSGSGSGTDFTFTITSLQPEDIGTYFCQQYGNLPYTFGQGTKLEIK	18.1	0.000842	46400	5.87	1.6
2019EP47-A02 scFv (scFv, V domains shown, Tested as a single-chain scFv made in E. coli with a C-terminal flag and 6x His tag) VH: EVQLVQSGGGVVQPGRSLRLSCAASGFTFSSYAMHWVRQAPGKGLEWVAVISYDGSNKYYADSVKGRFTISRDNSKNTLYLQMNSLRAEDTAVYYCARSRYSSSLRRYYGMDVWGQGTTVTVSS VL: AIQLTQSPSSLSASVGDRVTITCQATHDIANYLNWYQQKPGKAPKLLIYAASNLETGVPSRFSGSGSGTDFTFAISSLQPEDIAVYYCQQYDNLPLTFGGGTKVEIK	58.8	0.00149	28700	21.9	10.6
2020EP032-B03 scFv (scFv, V domains shown, Tested as a single-chain scFv made in E. coli with a C-terminal flag and 6x His tag) VH: QVQLQQWGAGLLKPSETLSLTCAVYGGSFSGYYWSWIRQPPGKGLEWIGEINHSGSTNYNPSLKSRVTISVDTSKNQFSLKLSSVTAADTAVYYCARGPLRKYYDFWSGSRNYYYYGMDVWGQGTTVTVSS VL: QPVLTQDPAVSVALGQTVRITCQGDSLRSNYASWYQLKPGQAPVLVIYDKNNRPSGIPDRFSGSNSGNTASLTIAGAQAEDEADYYCTSRDSSGTVFGGGTKLTVL	2.11	0.000282	134000	1.78	1.22
2020EP032-H11 scFv (scFv, V domains shown, Tested as a single-chain scFv made in E. coli with a C-terminal flag and 6x His tag) VH: EVQLVESGGGLVKPGGSLRLSCAASGFTFSSYSMNWVRQAPGKGLEWVSSISSSSSYIYYADSVKGRFTISRDNAKNSLYLQMNSLRAEDTAVYYCARDYRGYSGQNYYGMDVWGQGTTVTVSS VL: QSALTQPPSVSAAPRQKVTISCSGSSSNIGNNDVSWYQQLPGTVPKLLIYDNNKRPSGIPDRFSGSKSGTSASLGITGLQTGDEADYYCGVWDSSLSGYVFGTGTKVTVL	0.557	0.000316	567000	0.567	10.6
2019EP47-C12 scFv (scFv, V domains shown, Tested as a single-chain scFv made in E. coli with a C-terminal flag and 6x His tag) VH: EVQLVESGGGLEKPGRSLRLSCTASGFTFGDYAMSWFRQAPGKGLEWVGFITTKPYGGTTEYAASVKGRFTISRDDSKSIAYLQMNSLKTEDTAEYYCTKDSEAYYGSGSYMVGYWGQGTLVTVSS VL: QSVLTQPPSVSLAPGKTATITCGGDNIENKDVHWYQQKPGQAPVLVIRFAADRPSGIPERFSGSSSGNTATLTISRVEAGDEADYYCQVWQSTRDHPVVVFGGGTKLTVL				9.97	13.1
2019EP47-A10 scFv (scFv, V domains shown, Tested as a single-chain scFv made in E. coli with a C-terminal flag and 6x His tag) VH: QMQLVQSGGGVVQPGRSLRLSCAASGFTFSSYGMHWVRQAPGKGLEWVAVISYDGSNKYYADSVKDRFTISRDNSKNTLYLQMNSLRAEDTAVYYCAKDIVGDSGSYPIYYYYGMDVWGQGTTVTVSS VL: SQSALTQPHSVSESPGKTVTISCTRSSGSIASNYVQWYQQRPGSAPSTVIYEDNQRPSGVPDRFSGSVDISSNSASLTISGLQTEDEADYYCQSYDNDNMVFGGGTKLTVL	3.32	6.02e-05	18200	2.5	112
2020EP083-G11 scFv (scFv, V domains shown, Tested as a single-chain scFv made in E. coli with a C-terminal flag and 6x His tag) VH: EVQLVESGGGLVEPGGSLRLSCAASGFTFSSYSMSWVRQAPGKGLEWVGRIKSETDGGTTDYAGPAKGKFIISRNDAENTVSLQMNSLKFEDTAVYHCTTDSSSSWFSYSFDNWGQETLVTVSS VL: EIVMTQSPATLSVSPGERATLSCRASQNVNSNLAWYQQKTGQAPRLLIFGASTRATGIPARFSGSGSGTEFTLTIGSLQSEDFAVYYCQQYNNWPPTFGGWTKVEIK	1.12	0.000356	318000	1.29	0.87
2020EP085-G5 scFv (scFv, V domains shown, Tested as a single-chain scFv made in E. coli with a C-terminal flag and 6x His tag) VH: QVQLVQSGAEVKKPGASVKVSCKASGYTFTDYYMHWVRQAPGQGLEWMGWINPNSGGTNYAQKFQGRVTMTRDTSITTAYMELSWLRSDDTAVYYCAREVGTTTTGVDYWGQGTLVTVSS VL: VIWMTQSPSSLSASVGDRVTFTCQASQDINIYLTWYQIKPGKAPKVLIYDASTLESGVPSRFSGSGFGTHFVFTISSLQPEDFATYYCQHYDSLPLTFGGGTKVEIK	10.9	0.00144	132000	3.3	1
2020EP032-C09 scFv (scFv, V domains shown, Tested as a single-chain scFv made in E. coli with a C-terminal flag and 6x His tag) VH: QVQLVESGGGLVKPGGSLRLSCAASGFSFNNAWMSWVRQAPGKGLEWVGRIKSKTDDATTEYAAPVEGRFTISRDDSKNMLYLQMDSLKTEDTAVYYCTTDLRWEELPMYWGQGTLVTVSS VL: VIWMTQSPSSLSASVGDRVTITCRASQGIRNDLGWYQQKPGKAPKVLIYAASSLQSGVPSRFSGSGSGTDFTLTISSLQPEDFATYYCLQDYNYPQTFGQGTKVGIKR	25.1	0.00169	67600	6.07	0.65
